Data published in patent publication US20100166741A1 (Genentech, published 2010).

Tests used:
[1] = target: T1, human FcγRIII (CD16) on NK cells (human, UniProt P08637 17-254); assay: cell-based or functional assay
[2] = target: T2, mouse FcγRIII extracellular domain, His-tagged GST fusion (mouse, UniProt P08508 31-215); assay: ELISA, captured FcγR-GST;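 note: antibody variants applied as dilution series to receptor wells, with retained antibody read out via an HRP-linked goat F(ab′)2 fragment recognizing human Fab′2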
T2 construct: extracellular domain; also called Mouse III; not shown: His tag and GST
T2 sequence (looked up): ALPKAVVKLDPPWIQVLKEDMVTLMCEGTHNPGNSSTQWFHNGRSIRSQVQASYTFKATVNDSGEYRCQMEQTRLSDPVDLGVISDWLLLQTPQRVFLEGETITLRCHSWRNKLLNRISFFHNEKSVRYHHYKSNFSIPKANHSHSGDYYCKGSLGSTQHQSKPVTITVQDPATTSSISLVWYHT

[3] = target: T3, human FcγRI extracellular domain, His-tagged GST fusion (human, UniProt P12314 16-292); assay: ELISA, captured FcγR-GST;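 note: antibody variants applied as dilution series to receptor wells, with retained antibody read out via an HRP-linked goat F(ab′)2 fragment recognizing human Fab′2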
T3 construct: extracellular domain; also called hFcgRI; FcγRIA; not shown: C-terminal Gly/His6/GST tag

[4] = target: T4, human FcγRIIa extracellular domain, His-tagged GST fusion (human, UniProt P12318 34-217); assay: ELISA, captured FcγR-GST;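 note: antibody variants applied as dilution series to receptor wells, with retained antibody read out via an HRP-linked goat F(ab′)2 fragment recognizing human Fab′2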
T4 construct: extracellular domain; also called hFcgRIIa; CD32A; not shown: C-terminal Gly/His6/GST tag
T4 sequence (looked up): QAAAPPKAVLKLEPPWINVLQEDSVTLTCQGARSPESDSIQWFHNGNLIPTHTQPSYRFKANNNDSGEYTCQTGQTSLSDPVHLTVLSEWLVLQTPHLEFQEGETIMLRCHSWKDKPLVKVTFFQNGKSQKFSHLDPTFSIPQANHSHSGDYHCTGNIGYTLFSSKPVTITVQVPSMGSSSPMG

[5] = target: T5, human FcγRIIb extracellular domain, His-tagged GST fusion (human, UniProt P31994 43-217); assay: ELISA, captured FcγR-GST;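 note: antibody variants applied as dilution series to receptor wells, with retained antibody read out via an HRP-linked goat F(ab′)2 fragment recognizing human Fab′2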
T5 construct: extracellular domain; also called hFcgRIIb; CD32B; not shown: C-terminal Gly/His6/GST tag
T5 sequence (looked up): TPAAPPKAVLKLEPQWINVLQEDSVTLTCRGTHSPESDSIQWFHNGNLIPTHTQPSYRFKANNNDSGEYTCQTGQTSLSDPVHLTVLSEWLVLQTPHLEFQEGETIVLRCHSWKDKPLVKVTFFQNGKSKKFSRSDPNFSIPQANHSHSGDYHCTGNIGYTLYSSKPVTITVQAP

[6] = target: T6, mouse FcγRI extracellular domain, His-tagged GST fusion (mouse, UniProt P26151 25-297); assay: ELISA, captured FcγR-GST
T6 construct: extracellular domain; also called Mouse I; mFcγRI; not shown: His tag and GST
T6 sequence (looked up): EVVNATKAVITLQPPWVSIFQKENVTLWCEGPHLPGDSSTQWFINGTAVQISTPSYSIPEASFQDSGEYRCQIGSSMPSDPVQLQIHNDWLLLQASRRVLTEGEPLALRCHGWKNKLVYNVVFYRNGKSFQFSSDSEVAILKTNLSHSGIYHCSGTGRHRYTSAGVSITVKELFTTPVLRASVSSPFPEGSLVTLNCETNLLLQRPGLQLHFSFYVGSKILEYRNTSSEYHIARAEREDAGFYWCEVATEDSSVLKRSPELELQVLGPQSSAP

[7] = target: T7, mouse FcγRII extracellular domain, His-tagged GST fusion (mouse, UniProt P08101 30-210); assay: ELISA, captured FcγR-GST
T7 construct: extracellular domain; also called Mouse II; not shown: His tag and GST
T7 sequence (looked up): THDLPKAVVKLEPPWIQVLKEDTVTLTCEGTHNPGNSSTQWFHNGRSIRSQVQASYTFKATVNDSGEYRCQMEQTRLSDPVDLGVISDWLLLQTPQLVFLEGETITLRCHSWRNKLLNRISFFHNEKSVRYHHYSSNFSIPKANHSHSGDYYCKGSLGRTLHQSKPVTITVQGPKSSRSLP

[8] = target: T4, human FcγRIIa extracellular domain, …; assay: ELISA, FcγR-His-GST captured by anti-GST, complexed IgG
Method: (§1) MaxiSorp 96-well microwell plates (Nunc, Roskilde, Denmark) were coated with 2 μg/ml anti-GST (clone 8E2.1.1, Genentech), at 100 μl/well in 50 mM carbonate buffer, pH 9.6, at 4° C. overnight. Plates were washed with PBS containing 0.05% polysorbate, pH 7.4 (wash buffer) and blocked with PBS containing 0.5% BSA, pH 7.4, at 150 μl/well. After an hour incubation at room temperature, plates were washed with wash buffer. […] The plates were incubated for one hour and washed with wash buffer. For low affinity Fcγ receptors IIa, IIb, III (F158) and high affinity III (V158), antibodies were incubated with goat F(ab′)₂ anti-κ (Cappel, ICN Pharmaceuticals, Inc., Aurora, Ohio) or anti-λ. (BioSource, Camarillo, Calif.) antibody at a 1:2 (w/w) ratio for 1 hour to form antibody complexes. […] After a two-hour incubation, plates were washed with wash buffer. Bound IgG was detected by adding peroxidase labeled goat F(ab′)₂ anti-human IgG F(ab′)₂ (Jackson ImmunoResearch, West Grove, Pa.) at 100 μl/well in assay buffer. After a one-hour incubation, plates were washed with wash buffer and the substrate 3,3′,5,5′-tetramethyl benzidine (TMB) (Kirkegaard & Perry Laboratories) was added at 100 μl/well. The reaction was stopped by adding 1 M phosphoric acid at 100 μl/well. Absorbance was read at 450 nm on a multiskan Ascent reader (Thermo Labsystems, Helsinki, Finland).
(§2) The absorbance at the midpoint of the standard curve (mid-OD vs. ng/ml) was calculated. The corresponding concentrations of standard and samples at this mid-OD were determined from the titration curves using a four-parameter nonlinear regression curve-fitting program (KaleidaGraph, Synergy software, Reading, Pa.). The relative activity was calculated by dividing the mid-OD concentration of standard by that of sample.

[9] = target: T5, human FcγRIIb extracellular domain, …; assay: as above
Method: as §1, §2

[10] = target: T3, human FcγRI extracellular domain, …; assay: ELISA, FcγR-His-GST captured by anti-GST
Method: as §1, §2

[11] = target: T1, human FcγRIII (CD16) on NK cells; assay: cell-based or functional assay; remark: listed apart in the source

B1: 9.1(5) (antibody, human IgG1, kappa)
heavy: EVQLVESGGGLVQPGGSLRLSCAASGFTVTAYYMSWVRQAPGKGLEWVGFIRDKANGYTTEYNPSVKGRFTISRDTSKNTFYLQMNSLRAEDTAVYYCAQVRRALDYWGQGTLVTVSSASTKGPSVFPLAPSSKSTSGGTAALGCLVKDYFPEPVTVSWNSGALTSGVHTFPAVLQSSGLYSLSSVVTVPSSSLGTQTYICNVNHKPSNTKVDKKVEPKSCDKTHTCPPCPAPELLGGPSVFLFPPKPKDTLMISRTPEVTCVVVDVSHEDPEVKFNWYVDGVEVHNAKTKPREEQYNATYRVVSVLTVLHQDWLNGKEYKCKVSNAALPAPIAATISKAKGQPREPQVYTLPPSREEMTKNQVSLTCLVKGFYPSDIAVEWESNGQPENNYKTTPPVLDSDGSFFLYSKLTVDKSRWQQGNVFSCSVMHEALHNHYTQKSLSLSPG
light: DIQMTQSPSSLSASVGDRVTITCKSSQSLLYSSNQNNYLAWYQQKPGKAPKLLIYWASTRESGVPSRFSGSGSGTDFTLTISSLQPEDFATYYCQQYYTYPYTFGQGTKVEIKRTVAAPSVFIFPPSDEQLKSGTASVVCLLNNFYPREAKVQWKVDNALQSGNSQESVTEQDSKDSTYSLSSTLTLSKADYEKHKVYACEVTHQGLSSPVTKSFNRGEC
notes: Fc variant of 9.1RF, expressed in CHO; also called 9.1RF S298A/K326A/E333A/K334A
ADCC on BJAB cells with NK cells, relative fold increase compared to 9.1RF [1]: 3 fold | fold improvement in binding vs Herceptin (EC50herceptin/EC50sample) [2]: 1.2 fold | fold improvement in binding vs Herceptin (EC50herceptin/EC50sample) [3]: 0.6 fold | fold improvement in binding vs Herceptin (EC50herceptin/EC50sample) [4]: 0.2 fold | fold improvement in binding vs Herceptin (EC50herceptin/EC50sample) [5]: 0.7 fold | fold improvement in binding vs Herceptin (EC50herceptin/EC50sample) [6]: 1.9 fold | fold improvement in binding vs Herceptin (EC50herceptin/EC50sample) [7]: 1.3 fold

B2: 9.1(8) (antibody, human IgG1, kappa)
heavy: EVQLVESGGGLVQPGGSLRLSCAASGFTVTAYYMSWVRQAPGKGLEWVGFIRDKANGYTTEYNPSVKGRFTISRDTSKNTFYLQMNSLRAEDTAVYYCAQVRRALDYWGQGTLVTVSSASTKGPSVFPLAPSSKSTSGGTAALGCLVKDYFPEPVTVSWNSGALTSGVHTFPAVLQSSGLYSLSSVVTVPSSSLGTQTYICNVNHKPSNTKVDKKVEPKSCDKTHTCPPCPAPELLGGPDVFLFPPKPKDTLMISRTPEVTCVVVDVSHEDPEVKFNWYVDGVEVHNAKTKPREEQYNATYRVVSVLTVLHQDWLNGKEYKCKVSNKALPAPEEKTISKAKGQPREPQVYTLPPSREEMTKNQVSLTCLVKGFYPSDIAVEWESNGQPENNYKTTPPVLDSDGSFFLYSKLTVDKSRWQQGNVFSCSVMHEALHNHYTQKSLSLSPG
light: DIQMTQSPSSLSASVGDRVTITCKSSQSLLYSSNQNNYLAWYQQKPGKAPKLLIYWASTRESGVPSRFSGSGSGTDFTLTISSLQPEDFATYYCQQYYTYPYTFGQGTKVEIKRTVAAPSVFIFPPSDEQLKSGTASVVCLLNNFYPREAKVQWKVDNALQSGNSQESVTEQDSKDSTYSLSSTLTLSKADYEKHKVYACEVTHQGLSSPVTKSFNRGEC
notes: Fc variant of 9.1RF, expressed in CHO; also called 9.1RF 239D/298A/332E
ADCC on BJAB cells with NK cells, relative fold increase compared to 9.1RF [1]: 12 fold | fold improvement in binding vs Herceptin (EC50herceptin/EC50sample) [2]: 4 fold | fold improvement in binding vs Herceptin (EC50herceptin/EC50sample) [3]: 0.7 fold | fold improvement in binding vs Herceptin (EC50herceptin/EC50sample) [4]: 0.9 fold | fold improvement in binding vs Herceptin (EC50herceptin/EC50sample) [5]: 3.5 fold | fold improvement in binding vs Herceptin (EC50herceptin/EC50sample) [6]: 24 fold | fold improvement in binding vs Herceptin (EC50herceptin/EC50sample) [7]: 7.6 fold

B3: 9.1-RF N434A (antibody, human IgG1, kappa)
heavy: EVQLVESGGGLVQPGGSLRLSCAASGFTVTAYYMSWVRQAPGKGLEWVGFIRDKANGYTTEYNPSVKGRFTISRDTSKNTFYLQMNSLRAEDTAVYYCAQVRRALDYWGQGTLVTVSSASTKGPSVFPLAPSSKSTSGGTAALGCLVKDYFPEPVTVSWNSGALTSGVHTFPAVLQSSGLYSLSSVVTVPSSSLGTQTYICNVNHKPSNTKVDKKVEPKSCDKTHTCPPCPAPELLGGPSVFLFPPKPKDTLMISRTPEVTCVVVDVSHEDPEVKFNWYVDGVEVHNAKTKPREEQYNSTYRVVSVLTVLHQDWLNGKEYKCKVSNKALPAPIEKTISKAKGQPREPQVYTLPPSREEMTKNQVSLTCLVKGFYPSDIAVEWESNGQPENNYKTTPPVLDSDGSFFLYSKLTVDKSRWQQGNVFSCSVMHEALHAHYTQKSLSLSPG
light: DIQMTQSPSSLSASVGDRVTITCKSSQSLLYSSNQNNYLAWYQQKPGKAPKLLIYWASTRESGVPSRFSGSGSGTDFTLTISSLQPEDFATYYCQQYYTYPYTFGQGTKVEIKRTVAAPSVFIFPPSDEQLKSGTASVVCLLNNFYPREAKVQWKVDNALQSGNSQESVTEQDSKDSTYSLSSTLTLSKADYEKHKVYACEVTHQGLSSPVTKSFNRGEC
notes: also called 9.1RF-IgG (N434X), X = A
binding relative to 9.1-RF [8]: 0.66 | binding relative to 9.1-RF [9]: 0.45 | binding relative to 9.1-RF [10]: 0.97

B4: 9.1(7) (antibody, human IgG1, kappa)
heavy: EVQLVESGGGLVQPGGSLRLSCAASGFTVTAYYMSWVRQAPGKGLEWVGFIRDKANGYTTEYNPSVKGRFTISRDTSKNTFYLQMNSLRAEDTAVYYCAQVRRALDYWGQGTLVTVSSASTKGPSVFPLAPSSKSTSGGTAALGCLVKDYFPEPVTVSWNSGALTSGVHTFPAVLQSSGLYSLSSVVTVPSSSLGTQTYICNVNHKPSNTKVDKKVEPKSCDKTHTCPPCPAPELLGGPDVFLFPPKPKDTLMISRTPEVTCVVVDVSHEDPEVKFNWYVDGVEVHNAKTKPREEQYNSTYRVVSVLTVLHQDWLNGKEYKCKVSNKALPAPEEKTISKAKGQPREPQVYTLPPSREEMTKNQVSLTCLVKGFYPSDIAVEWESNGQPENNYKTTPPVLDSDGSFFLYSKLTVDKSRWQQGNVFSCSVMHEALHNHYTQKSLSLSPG
light: DIQMTQSPSSLSASVGDRVTITCKSSQSLLYSSNQNNYLAWYQQKPGKAPKLLIYWASTRESGVPSRFSGSGSGTDFTLTISSLQPEDFATYYCQQYYTYPYTFGQGTKVEIKRTVAAPSVFIFPPSDEQLKSGTASVVCLLNNFYPREAKVQWKVDNALQSGNSQESVTEQDSKDSTYSLSSTLTLSKADYEKHKVYACEVTHQGLSSPVTKSFNRGEC
notes: Fc variant of 9.1RF, expressed in CHO; also called 9.1RF 239D/332E
ADCC on BJAB cells with NK cells, relative fold increase compared to 9.1RF [1]: 7 fold | fold improvement in binding vs Herceptin (EC50herceptin/EC50sample) [2]: 9.9 fold | fold improvement in binding vs Herceptin (EC50herceptin/EC50sample) [3]: 0.7 fold | fold improvement in binding vs Herceptin (EC50herceptin/EC50sample) [4]: 5.3 fold | fold improvement in binding vs Herceptin (EC50herceptin/EC50sample) [5]: 17 fold | fold improvement in binding vs Herceptin (EC50herceptin/EC50sample) [6]: 62 fold | fold improvement in binding vs Herceptin (EC50herceptin/EC50sample) [7]: 19 fold

B5: 9.1-RF N434W (antibody, human IgG1, kappa)
heavy: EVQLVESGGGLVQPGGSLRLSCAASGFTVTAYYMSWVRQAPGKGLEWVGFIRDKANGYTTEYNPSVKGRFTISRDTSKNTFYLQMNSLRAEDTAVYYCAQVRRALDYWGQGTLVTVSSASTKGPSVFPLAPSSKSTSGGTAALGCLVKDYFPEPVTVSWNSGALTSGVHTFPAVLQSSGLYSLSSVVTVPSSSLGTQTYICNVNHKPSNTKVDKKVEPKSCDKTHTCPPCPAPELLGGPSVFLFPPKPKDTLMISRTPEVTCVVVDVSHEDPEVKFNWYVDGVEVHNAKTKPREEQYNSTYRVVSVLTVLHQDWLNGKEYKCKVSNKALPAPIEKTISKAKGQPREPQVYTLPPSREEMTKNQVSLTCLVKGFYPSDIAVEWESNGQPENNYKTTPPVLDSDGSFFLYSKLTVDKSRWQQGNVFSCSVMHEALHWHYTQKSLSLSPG
light: DIQMTQSPSSLSASVGDRVTITCKSSQSLLYSSNQNNYLAWYQQKPGKAPKLLIYWASTRESGVPSRFSGSGSGTDFTLTISSLQPEDFATYYCQQYYTYPYTFGQGTKVEIKRTVAAPSVFIFPPSDEQLKSGTASVVCLLNNFYPREAKVQWKVDNALQSGNSQESVTEQDSKDSTYSLSSTLTLSKADYEKHKVYACEVTHQGLSSPVTKSFNRGEC
notes: also called Hu9.1RF IgG1 with an N434W mutation; Control (agonistic positive control)
binding relative to 9.1-RF [8]: 0.64 | binding relative to 9.1-RF [9]: 0.4 | binding relative to 9.1-RF [10]: 1

B6: 9.1(6) (antibody, human IgG1, kappa)
heavy: EVQLVESGGGLVQPGGSLRLSCAASGFTVTAYYMSWVRQAPGKGLEWVGFIRDKANGYTTEYNPSVKGRFTISRDTSKNTFYLQMNSLRAEDTAVYYCAQVRRALDYWGQGTLVTVSSASTKGPSVFPLAPSSKSTSGGTAALGCLVKDYFPEPVTVSWNSGALTSGVHTFPAVLQSSGLYSLSSVVTVPSSSLGTQTYICNVNHKPSNTKVDKKVEPKSCDKTHTCPPCPAPELLGGPSVFLFPPKPKDTLMISRTPEVTCVVVDVSHEDPEVKFNWYVDGVEVHNAKTKPREEQYNATYRVVSVLTVLHQDWLNGKEYKCKVSNKALPAPIAATISKAKGQPREPQVYTLPPSREEMTKNQVSLTCLVKGFYPSDIAVEWESNGQPENNYKTTPPVLDSDGSFFLYSKLTVDKSRWQQGNVFSCSVMHEALHNHYTQKSLSLSPG
light: DIQMTQSPSSLSASVGDRVTITCKSSQSLLYSSNQNNYLAWYQQKPGKAPKLLIYWASTRESGVPSRFSGSGSGTDFTLTISSLQPEDFATYYCQQYYTYPYTFGQGTKVEIKRTVAAPSVFIFPPSDEQLKSGTASVVCLLNNFYPREAKVQWKVDNALQSGNSQESVTEQDSKDSTYSLSSTLTLSKADYEKHKVYACEVTHQGLSSPVTKSFNRGEC
notes: Fc variant of 9.1RF, expressed in CHO; also called 9.1RF S298A/E333A/K334A
ADCC on BJAB cells with NK cells, relative fold increase compared to 9.1RF [1]: 3 fold | ADCC on BJAB cells with NK cells, relative EC50 values against 9.1RF [11]: 2.8 fold | fold improvement in binding vs Herceptin (EC50herceptin/EC50sample) [2]: 0.6 fold | fold improvement in binding vs Herceptin (EC50herceptin/EC50sample) [3]: 0.7 fold | fold improvement in binding vs Herceptin (EC50herceptin/EC50sample) [4]: 0.2 fold | fold improvement in binding vs Herceptin (EC50herceptin/EC50sample) [5]: 0.4 fold | fold improvement in binding vs Herceptin (EC50herceptin/EC50sample) [6]: 2.5 fold | fold improvement in binding vs Herceptin (EC50herceptin/EC50sample) [7]: 0.4 fold
